{"source": "the RNAGym collection of RNA variant scans (doi:10.1101/gr.219683.116)", "parents": {"B1": {"name": "mRNA-splicing (parent)", "chain": "AGUUGCUGCUGGGAGCUCCAGCACAGUGAAAUGGACAGAAGGGCAGAGCAA"}}, "data": [{"variants_of": "B1", "assay": "exon inclusion enrichment index; higher = more inclusion; WT1 exon 5 minigene, HEK293", "values": [{"variant": "U4C G8U C9U", "exon inclusion enrichment index": 2.06}, {"variant": "G2U U3A G5C C6A U7C G8A U10A", "exon inclusion enrichment index": 0.383}, {"variant": "U3C U4A G5C C6G U7C U10C", "exon inclusion enrichment index": 2.55}, {"variant": "U3A U4A G5C C6U G8C C9U U10C", "exon inclusion enrichment index": 1.8}, {"variant": "U3C U4C C6A U7A C9A U10A", "exon inclusion enrichment index": 1.44}, {"variant": "U3C G5C C6G U7C U10C", "exon inclusion enrichment index": 1.22}, {"variant": "U4G C6G U7G C9A", "exon inclusion enrichment index": 0.0187}, {"variant": "U4A C6G U7C U10C", "exon inclusion enrichment index": 0.262}, {"variant": "U4A G5A C6U U7A G8U C9A", "exon inclusion enrichment index": 0.0542}, {"variant": "U4C G5C U7C G8A U10C", "exon inclusion enrichment index": 1.51}, {"variant": "U4G C6U U7A G8U C9A", "exon inclusion enrichment index": 0.0761}, {"variant": "U3G U4C G5C C6U G8C C9U U10C", "exon inclusion enrichment index": 1.03}, {"variant": "U4C G5A C6A U7C C9A U10C", "exon inclusion enrichment index": 4.23}, {"variant": "G2U G5U G8U C9U", "exon inclusion enrichment index": 0.329}, {"variant": "U4C G5A G8U C9U", "exon inclusion enrichment index": 0.77}, {"variant": "U3C G5U G8U C9U", "exon inclusion enrichment index": 0.0225}, {"variant": "G2U U3C G5C C6A U7C G8A U10A", "exon inclusion enrichment index": 0.619}, {"variant": "U3C U4G G5C C6G U7C U10C", "exon inclusion enrichment index": 1.31}, {"variant": "G2U U3A C6A U7A C9A U10A", "exon inclusion enrichment index": 1.45}, {"variant": "G2A U3G G5C C6G U7C U10C", "exon inclusion enrichment index": 2.14}, {"variant": "G2C U3G G5C C6A U7C G8A U10A", "exon inclusion enrichment index": 0.148}, {"variant": "G2U U3C", "exon inclusion enrichment index": 0.216}, {"variant": "G2U U3G", "exon inclusion enrichment index": 0.359}, {"variant": "G2U U3A", "exon inclusion enrichment index": 0.342}, {"variant": "G2C G5C C6A U7C G8A U10A", "exon inclusion enrichment index": 0.0904}, {"variant": "G2C G5A C6U U7A G8U C9A", "exon inclusion enrichment index": 0.0726}, {"variant": "U3G G5A U7C G8A U10C", "exon inclusion enrichment index": 0.68}, {"variant": "U4C G5A C6U G8C C9U U10C", "exon inclusion enrichment index": 1.56}, {"variant": "G2C U3A G5A C6G U7G C9A", "exon inclusion enrichment index": 0.0159}, {"variant": "U3A U4C G5A U7C G8A U10C", "exon inclusion enrichment index": 2.99}, {"variant": "U4A C6A U7A C9A U10A", "exon inclusion enrichment index": 0.122}, {"variant": "G2C U3G G5A C6U U7A G8U C9A", "exon inclusion enrichment index": 0.0859}, {"variant": "U3C U4G G5A C6U U7A G8U C9A", "exon inclusion enrichment index": 0.312}, {"variant": "U3G U4C G5A U7C G8A U10C", "exon inclusion enrichment index": 2.37}, {"variant": "U3C U4C G5A U7C G8A U10C", "exon inclusion enrichment index": 2.69}, {"variant": "U3A C6A U7C C9A U10C", "exon inclusion enrichment index": 3.37}, {"variant": "U3G U4C G5U G8U C9U", "exon inclusion enrichment index": 0.0275}, {"variant": "U3A U4C G5A C6U U7A G8U C9A", "exon inclusion enrichment index": 0.3}, {"variant": "U4G C6A U7A C9A U10A", "exon inclusion enrichment index": 0.488}, {"variant": "G2U U3C G5A U7C G8A U10C", "exon inclusion enrichment index": 4.11}, {"variant": "U4C G5C C6A U7A C9A U10A", "exon inclusion enrichment index": 1.37}, {"variant": "U4A G5U C6U U7A G8U C9A", "exon inclusion enrichment index": 0.0503}, {"variant": "U3G U4A G5C C6G U7C U10C", "exon inclusion enrichment index": 2.08}, {"variant": "U3G U4C C6A U7C C9A U10C", "exon inclusion enrichment index": 3.64}, {"variant": "U3A U4G G5A U7C G8A U10C", "exon inclusion enrichment index": 3.06}, {"variant": "G2A G5A U7C G8A U10C", "exon inclusion enrichment index": 3.39}, {"variant": "G2A G5A C6G U7G C9A", "exon inclusion enrichment index": 0.0189}, {"variant": "G2C U3G C6A U7C C9A U10C", "exon inclusion enrichment index": 3.19}, {"variant": "G2C U3C G5A U7C G8A U10C", "exon inclusion enrichment index": 2.27}, {"variant": "U4A G5U C6G U7G C9A", "exon inclusion enrichment index": 0.0707}, {"variant": "U3C U4A G5C C6U G8C C9U U10C", "exon inclusion enrichment index": 1.61}, {"variant": "U3A U4G C6A U7C C9A U10C", "exon inclusion enrichment index": 1.54}, {"variant": "G2A U3G G5C C6A U7C G8A U10A", "exon inclusion enrichment index": 0.0866}, {"variant": "U4A G5U C6A U7C G8A U10A", "exon inclusion enrichment index": 0.0592}, {"variant": "U3A U4C C6A U7C C9A U10C", "exon inclusion enrichment index": 4.11}, {"variant": "G2A U3C G5A C6G U7G C9A", "exon inclusion enrichment index": 0.0183}, {"variant": "U3G U4C C6A U7A C9A U10A", "exon inclusion enrichment index": 1.04}, {"variant": "G2U U3C G5A C6U U7A G8U C9A", "exon inclusion enrichment index": 0.557}, {"variant": "U4A G5A C6G U7G C9A", "exon inclusion enrichment index": 0.0163}, {"variant": "U4C C6U U7A G8U C9A", "exon inclusion enrichment index": 1.12}, {"variant": "G2C U3A G5A U7C G8A U10C", "exon inclusion enrichment index": 1.93}, {"variant": "G2U U3A G5C C6G U7C U10C", "exon inclusion enrichment index": 5.21}, {"variant": "U4A G5A C6G U7C U10C", "exon inclusion enrichment index": 1.18}, {"variant": "G2C U3A C6A U7C C9A U10C", "exon inclusion enrichment index": 2.73}, {"variant": "U4A G5A C6A U7C C9A U10C", "exon inclusion enrichment index": 2.23}, {"variant": "U4C C6A U7C C9A U10C", "exon inclusion enrichment index": 4.65}, {"variant": "G2A U3C G5C C6A U7C G8A U10A", "exon inclusion enrichment index": 0.124}, {"variant": "U3C U4A G5A U7C G8A U10C", "exon inclusion enrichment index": 2.12}, {"variant": "G2C U3C G5A C6U U7A G8U C9A", "exon inclusion enrichment index": 0.0956}, {"variant": "G2A U3G C6A U7C C9A U10C", "exon inclusion enrichment index": 2.22}, {"variant": "U3G U4A G5C C6U G8C C9U U10C", "exon inclusion enrichment index": 0.91}, {"variant": "U3A U4A G5A C6G U7G C9A", "exon inclusion enrichment index": 0.0117}, {"variant": "G2U U3G G5A U7C G8A U10C", "exon inclusion enrichment index": 4.12}, {"variant": "U3A U4A G5A C6U U7A G8U C9A", "exon inclusion enrichment index": 0.0823}, {"variant": "U4G G5A C6G U7G C9A", "exon inclusion enrichment index": 0.00812}, {"variant": "U3C U4C G5A C6U U7A G8U C9A", "exon inclusion enrichment index": 0.481}, {"variant": "G2A U3G G5A C6G U7G C9A", "exon inclusion enrichment index": 0.00228}, {"variant": "G2U U3A G5A C6U U7A G8U C9A", "exon inclusion enrichment index": 0.247}, {"variant": "U4C G5A C6A U7A C9A U10A", "exon inclusion enrichment index": 0.662}, {"variant": "U3C U4C G5C C6A U7C G8A U10A", "exon inclusion enrichment index": 0.144}, {"variant": "U3A U4A G5C C6A U7C G8A U10A", "exon inclusion enrichment index": 0.0877}, {"variant": "U3G U4G G5U G8U C9U", "exon inclusion enrichment index": 0.0141}, {"variant": "U3G U4A G5A C6G U7G C9A", "exon inclusion enrichment index": 0.0126}]}]}
